Series [1] can be described thus: Circular dichroism (secondary structure). The series is classed as physicochemical. The method, then:
CysBAGE4‐MalLNP and 2‐LNP formulations were analysed using DLS, circular dichroism (CD), and TEM. DLS analysis: CysBAGE4‐MalLNP and 2‐LNP formulations were diluted with Milli‐Q water and transferred to disposable cuvettes before measurement at 25°C with a 173° light scattering angle, […]. CD analysis: CysBAGE4‐MalLNP and 2‐LNP formulations were diluted with Milli‐Q water and analysed using a quartz cell with a 0.01 mm path length. Spectra were measured using a 0.5 nm step, 1 nm bandwidth and 1 s collection time per step. […]
NMR samples were analysed on either a Bruker AVIII 400 NMR system (1H-NMR frequency 400 MHz; 13C-NMR frequency 101 MHz) or a Bruker 500 MHz system (1H-NMR frequency 500 MHz; 13C-NMR frequency 125 MHz). […]
High-resolution mass spectra were recorded on a Bruker MicroTOF Focus II MS (ESI) operating in positive or negative ionisation mode. […]
Peptides were analyzed using a Waters Sunfire 5 μm, 2.1 x 150 mm column (C-18) at a flow rate of 0.6 mL/min. […]
Dynamic Light Scattering (DLS) Spectra were recorded using a Zetasizer Nano ZS (Malvern Panalytical) to measure the particle size and charge. […]
Circular Dichroism (CD) Spectra were recorded using a Chirascan spectropolarimeter (Applied Photophysics, U.K.). […]
windows, with 0.01 mm path length. Spectra were measured using a 0.5 nm step, 1 nm […]
In general terms: Circular dichroism is widely used to follow secondary structure.

Series [2] is described as follows: SAXS and cryo‐TEM (fibril formation). The class given is physicochemical. The settings on record: 1 wt% aqueous solution. The method, then: Interrogation of the structure of peptide‐adjuvant constructs 2 and 3 was performed using CD spectroscopy as well as modelling studies (PEP‐FOLD). […] Fibril formation by α‐helical peptides is typically observed due to lateral association of coiled‐coils. Here, this may play a role, although lateral interaction of the hydrophobic alkyl chains is likely to be the essential driver for the fibril formation. The fibril core radius 14.0–18.5 Å from SAXS (Table S1) is consistent with the length of an extended Pam lipid chain. […]
windows, with 0.01 mm path length. Spectra were measured using a 0.5 nm step, 1 nm bandwidth and 1 s collection time per step, and a range of 180 to 280 nm. […]
The residue of the calculation was chosen to oscillate around the average, to avoid artifacts in the smoothed curve. CD data, measured in mdeg, was normalized to molar ellipticity using the molar concentration of the sample and the cell path length.
Cryogenic-TEM (Cryo-TEM) Imaging was carried out using a field emission cryo-electron microscope (JEOL JEM-3200FSC), operating at 200 kV. […] The micrographs were recorded using a Gatan Ultrascan 4000 CCD camera. […] Vitrified specimens were prepared using an automated FEI Vitrobot device using Quantifoil 3.5/1 holey carbon copper 200 mesh grids with a hole size of 3.5 µm and […]. […]

“Also recorded” adds a separate entry of the source.

Turning to “3: vaccine‐adjuvant construct Pam2Cys‐SK4‐NY‐ESO‐1_157‐165 [compound 3]”, the “α‐helical character (f α)” value in series [1] (CD spectra, Figures S12 and S13) stood at 0.41. Also, the “Secondary structure (in words)” value in series [1] (CD, 0.01 mm path length, 180–280 nm) is recorded as “form α‐helical structures; also recorded: significantly more α‐helical character”. In series [2], the Fibril formation result is listed as “also formed fibrils; also recorded: indicate the formation of fibrils”.

The values above are taken from article PMC12053792 (Journal of Peptide Science, 2025).
